Changes are numbered by the printed parent chain.
T1: CD30-Fc (human)
T1 construct: also called extracellular domain of CD30 fused with human IgG Fc
T1 chain: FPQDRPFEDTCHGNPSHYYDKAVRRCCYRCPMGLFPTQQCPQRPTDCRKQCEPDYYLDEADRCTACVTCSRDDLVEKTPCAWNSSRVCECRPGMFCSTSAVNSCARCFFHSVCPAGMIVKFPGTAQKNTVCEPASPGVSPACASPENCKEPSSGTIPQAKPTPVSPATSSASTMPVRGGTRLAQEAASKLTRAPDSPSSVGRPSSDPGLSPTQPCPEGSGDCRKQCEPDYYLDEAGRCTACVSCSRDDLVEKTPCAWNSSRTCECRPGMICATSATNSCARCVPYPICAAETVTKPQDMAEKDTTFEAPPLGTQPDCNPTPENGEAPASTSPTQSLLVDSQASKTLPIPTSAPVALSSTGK

T2: human CD30, native, expressed on cells (human)
T2 construct: also called native CD30; CD30 on L540, L428, A431/CD30, Karpas299, SUDHL-1 and other CD30-positive cells
T2 chain: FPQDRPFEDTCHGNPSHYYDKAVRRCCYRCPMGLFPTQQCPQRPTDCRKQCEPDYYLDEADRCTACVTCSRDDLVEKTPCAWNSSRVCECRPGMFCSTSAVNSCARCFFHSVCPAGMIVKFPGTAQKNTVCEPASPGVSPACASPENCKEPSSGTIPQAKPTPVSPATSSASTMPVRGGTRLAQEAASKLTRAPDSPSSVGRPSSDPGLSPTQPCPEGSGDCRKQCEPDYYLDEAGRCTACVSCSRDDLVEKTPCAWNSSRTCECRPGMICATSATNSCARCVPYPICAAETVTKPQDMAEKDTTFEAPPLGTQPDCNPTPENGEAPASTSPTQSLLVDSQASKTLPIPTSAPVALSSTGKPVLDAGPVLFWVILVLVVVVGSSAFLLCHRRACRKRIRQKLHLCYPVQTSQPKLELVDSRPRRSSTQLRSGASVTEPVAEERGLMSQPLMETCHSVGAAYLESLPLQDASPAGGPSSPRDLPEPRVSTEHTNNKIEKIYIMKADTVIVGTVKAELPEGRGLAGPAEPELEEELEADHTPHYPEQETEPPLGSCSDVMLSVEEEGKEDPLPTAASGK

T3: recombinant soluble CD30 (sCD30) produced in E. coli (human)
T3 construct: also called soluble CD30 made in E. coli; extracellular domain of CD30 with His-tag
T3 chain: T1 chain

B1: T201 MAb (antibody, V domains shown)
VH: QVQLKESGPGLVAPSQSLSITCTVSGFSLIDYGVSWVRQPPGKGLEWLGMIWGDGNTDYNSGLKSRLSISKDNSKSQVFLKVNSLQTDDTARYYCARPSTGTLFAYWGQGTLVTVSA
VL: EIVLTQSPTTMAASPGERITFTCSASSGISSIYLHWYQQKPGFSPKLLIYRTSNLASGVPPRFSGSGSGTSYSLTIGTMEAEDVATYYCQQGSSIPLTFGAGTKLELKR
B2: T427 MAb (antibody, V domains shown)
VH: QVQLQQPGTELVRPGASVKLSCKASGFSFTSYWMNWVKQRPGQGLEWIGMIHPSDSETRLNQKFKDRATLTVDKSSSTAYMQLSSPTSEDSAVYYCASEMDYYFAMDYWGQGTSVTVSS
VL: DIVLTQSPTSLAVSLGQRATISCRASESVDSYGNSFMHWFQQKPGQPPKLLIYRASNLESGIPARFSGSGSWTDFTLTINPVEADDVATYYCQQSNEDPRTFGGGTKLEIKR
B3: T6 MAb (antibody, V domains shown)
VH: QVQLKESGPGLVTPSQSLSITCTVSGFSLSKYSIHWVRQPPGRGLEWLGMIWGVENTDYNSALKSRLSISKDNSKSQVFLKMNSLQSDDTAMYYCARKDLGLYGMNYWGQGISVTVSA
VL: DIVMTQSQKFMSTSVGDRVSVTCKASQNVGTNVAWYQQKPGQSPKALFYSASYRYSGVPDRFIGSGSGTVFTLTISNVQSEDLAEYFCQQYNTYPLTFGSGTKLEIER
B4: T105 MAb (antibody, V domains shown)
VH: QVTLKESGPGILQPSQTLSLTCSFSGFSLSTSGMGVSWIRQPSGKDLEWLAHIYWDDDKRYNPSLKSRLTISKDTSSNQVFLKITSVDTADTATYYCARRADGLYFYLDVWGAGTTVTVSS
VL: B3 VL with G30N, K45E, F48I, I63T, V70D, T93S, E107K
B5: T24 MAb (antibody, V domains shown)
VH: QVQLQQPGAELVRPGASVKLSCKASGYSFTSYWIDWVKQRPGQGLEWIGNIYPSNAYTNYNQKFKDKATLTVDKSSSTAYMQLSSPTSEDSAVYYCTSVLDYFYAMDYWGQGTSVTVSS
VL: DIQMTQTTSSLSASLGDRVTISCRASQDISNYLNWYQQKPDGTVKLLIYYTSRLHSGVPSRFSGSGSGTDYSLTISNLEQEDIATYFCQQVNTLPRTFGGGTKLEIKR
B6: T13 MAb (antibody, V domains shown)
VH: QVQLQQSGAELAKPGASVKMSCKASGYTFTTYWMHWVKQRPGQGLEWIGYINPSTGYTDYNEKFKDKATLTADKSSSTAYMQLSSLTSEDSAVYYCVRRGSYDGNPFAYWGQGTLVSVSA
VL: DIVMTQSHKFMSTSVGDRVTITCKASQDVSTAVAWYQQKPGHSPKLLIYWASTRHTGVPDRFTGSGSGTDYTLTISSVQVEDLALYYCQQHYSTPFTFGSGTKLEIKR
B7: T420 MAb (antibody, V domains shown)
VH: QVQLQQSGAELAKPGASVKMSCKASGYTFTSYWMHWVKQRPGQDLEWIGYINPSTDYTDYNQKFKDKATLTADKSSSTAYMQLSSLTSEDSAVYYCATRHYGSSYGFAYWGQGTLVTVSA
VL: B6 VL with T20S, H42Q, T72S, V80A, L85V, S93R
B8: T25 MAb (antibody, V domains shown)
VH: QVTLKESGPGILQPSQTLSLTCSFSGFSLNTSGVGVGWIRQPSGKGLEWLAHIWWDDDERYNPVLKSRLTISKDTSSNQVFLKIANVDTADSATYYCVRSMVAWFPYWGRGTLVTVSA
VL: DIVMSQSPSSLAVSVGEKFTVNCKSSQSLLYSSNQKNFLAWYQQKPGQSPKLLIYWASTRESGVPDRFIGSGSGTDFTLTISSVKAEDLAVYYCQQHYRYPWTFGGGTKLEIKR
B9: T405 MAb (antibody, V domains shown)
VH: QVQLQQIGAELVRPGASVKLSCKASGYTFNNYWINWVKQRPGQGLEWIGNIYPSDSRSNYNQKFKDKATLTVDKPSSTAYMQLSSPTSEDSAVYYCTLGSYWGQGTLVTVSA
VL: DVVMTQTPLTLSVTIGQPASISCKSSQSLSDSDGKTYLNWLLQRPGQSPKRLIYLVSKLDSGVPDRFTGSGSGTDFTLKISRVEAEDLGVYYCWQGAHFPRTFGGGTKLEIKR
B10: T408 MAb (antibody, V domains shown)
VH: B9 VH with I7P, N30T, N31S, R57Y, P75S
VL: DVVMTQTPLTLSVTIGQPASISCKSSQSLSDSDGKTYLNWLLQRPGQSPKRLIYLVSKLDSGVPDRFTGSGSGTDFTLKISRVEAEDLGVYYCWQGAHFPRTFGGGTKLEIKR

Legend:
CD30-Fc [1] = target: T1, CD30-Fc; assay: affinity of the MAb; ELISA using CD30-Fc
Experimental: (§1) In one type of ELISA (CD30-Fc ELISA), microtiter plates were coated with 25 ng/well of CD30-Fc. Culture supernatants of hybridoma were added to the coated wells, and bound MAbs were detected with HRP-labeled rat anti-mouse kappa chain monoclonal antibody. A different format of ELISA. Ig-trap ELISA, was also carried out. MAbs were captured by anti-mouse IgG coated on the plates, and then reacted with various concentrations of CD30-Fc in solution. The bound CD30-Fc was detected with HRP-labeled goat anti-human Fc antibody.
(§2) Determination of affinity: Each MAb was titered in the CD30-Fc ELISA described above and an appropriate dilution for each MAb was selected from the liner range of the titration curves. […] The free MAb concentration in each equilibrium reaction was measured by the same ELISA using standard curves. No re-equilibrium occurred during the ELISA because of the small amounts of coated CD30-Fc and the short time of incubation. The CD30-Fc concentration giving half free MAb was the Kd.

[2] = target: T2, human CD30, native, expressed on cells; assay: FACS, L540 cells, MAb 5 µg/ml, control HeFi-I
Experimental: (§3) FACS Analysis. FACS analysis was performed to measure the binding of the MAbs or immunotoxins to native CD30 expressed on various cell lines. […] After incubation for 1 h at 4° C., the cells were washed twice with the same buffer and incubated with FITC-labeled goat mouse IgG (BioSource). After washing, the cells were suspended in 1 ml of the buffer, and the fluorescence associated with the live cells was measured using a FACS Calibur flow cytometer (Beckman Coulter, Fullerton, Calif.).
(§4) The binding activity of the MAbs to native CD30 on cells was measured.

[3] = target: T2, human CD30, native, expressed on cells; assay: competitive FACS on L540 cells, unlabeled MAb 2.5 µg/ml; competitor: biotin-T6
Experimental: as §3
(§5) These MAbs were further characterized for their topographical epitopes by a competitive binding assay using FACS analysis. […] Some of the MAbs were biotinylated as the indicators and incubated with L540 cells in the presence of various concentrations of unlabeled MAbs as the competitors.

[4] = target: T3, recombinant soluble CD30 (sCD30) …; assay: indirect ELISA, sCD30 coated
Experimental: (§6) ELISA. The binding of anti-CD30 MAbs to sCD30 and CD30-Fc was assayed by indirect ELISAs. Microtiter plates (Costar, Cambridge, Mass.) were coated with 20 ng/well of sCD30 or CD30-Fc in PBS overnight at 4° C. After blocking with 0.5% of BSA in PBS, hybridoma supernatants or purified MAbs were added to the coated wells and incubated for 2 h at room temperature. The bound MAbs were detected with alkaline phosphatase (ALP)-labeled anti-mouse IgG (BioSource, Camarillo, Calif.) and p-nitrophenyl phosphate as the substrate.

CD30-Fc [5] = target: T1, CD30-Fc; assay: indirect ELISA, CD30-Fc coated
Experimental: as §6

[6] = target: T2, human CD30, native, expressed on cells; assay: competitive FACS on L540 cells, unlabeled MAb 2.5 µg/ml; competitor: biotin-T25
Experimental: as §5

CD30-Fc [7] = target: T1, CD30-Fc; assay: ELISA using CD30-Fc (equilibrium in solution)
Experimental: as §1, §2

[8] = target: T2, human CD30, native, expressed on cells; assay: competitive FACS on L540 cells, unlabeled MAb 2.5 µg/ml; competitor: biotin-HRS-4
Experimental: as §5

[9] = target: T2, human CD30, native, expressed on cells; assay: competitive FACS on L540 cells, unlabeled MAb 2.5 µg/ml; competitor: biotin-HeFi-I
Experimental: as §5

[10] = target: T2, human CD30, native, expressed on cells; assay: competitive FACS on L540 cells, unlabeled MAb 2.5 µg/ml; competitor: biotin-T24
Experimental: as §5

[11] = target: T2, human CD30, native, expressed on cells; assay: competitive FACS on L540 cells, unlabeled MAb 2.5 µg/ml; competitor: biotin-T14
Experimental: as §5

[12] = target: T2, human CD30, native, expressed on cells; assay: FACS, L428 cells, MAb 5 µg/ml, control HeFi-I
Experimental: as §3, §4

Row | Binder | Kd (CD30-Fc [1]) [nM] | relative reactivity in FACS (% of control) [2] | inhibition of the binding of biotin-MAb (%) [3] [%] | titer in ELISA [4] [mL/µg] | titer in ELISA (CD30-Fc [5]) [mL/µg] | inhibition of the binding of biotin-MAb (%) [6] [%] | Kd (CD30-Fc [7]) [nM] | inhibition of the binding of biotin-MAb (%) [8] [%] | inhibition of the binding of biotin-MAb (%) [9] [%] | inhibition of the binding of biotin-MAb (%) [10] [%] | inhibition of the binding of biotin-MAb (%) [11] [%] | relative reactivity in FACS (% of control) [12]
1 | B1 | 8.3 | – | – | – | – | – | – | – | – | – | – | –
2 | B2 | 0.9 | – | – | – | – | – | – | – | – | – | – | –
3 | B3 | 13 | 111 % of control | 100 | 74.1 | 40 | 25 | 13 | 97.9 | 0 | 3.9 | 108 | 140 % of control
4 | B4 | 4.2 | – | – | – | – | – | 4.2 | – | – | – | – | –
5 | B5 | 2.2 | 117 % of control | 1.5 | 102 | 179 | 97.8 | 2.2 | 52.2 | 79.8 | 82.8 | 16.1 | 160 % of control
6 | B6 | 3.1 | 111 % of control | 87.4 | 87.7 | 91.2 | 26.7 | 3.1 | 82.6 | 0 | 40.1 | 108 | 180 % of control
7 | B7 | 1.9 | – | – | – | – | – | 1.9 | – | – | – | – | –
8 | B8 | 6.4 | 27.8 % of control | 1.5 | 135 | 50 | 79.8 | 6.4 | 0 | 0 | 0 | -1.3 | 80 % of control
9 | B9 | 5.7 | – | – | – | – | – | – | – | – | – | – | –
10 | B10 | 6.4 | – | – | – | – | – | – | – | – | – | – | –
